From PMC8053102 come the findings set out here.

The target in the data set is T1, PcnR (plasmid copy number repressor, ProQ/FinO family) (Escherichia coli IncI2 plasmid pHNSHP45, UniProt Q9F577 1-198).
T1 sequence: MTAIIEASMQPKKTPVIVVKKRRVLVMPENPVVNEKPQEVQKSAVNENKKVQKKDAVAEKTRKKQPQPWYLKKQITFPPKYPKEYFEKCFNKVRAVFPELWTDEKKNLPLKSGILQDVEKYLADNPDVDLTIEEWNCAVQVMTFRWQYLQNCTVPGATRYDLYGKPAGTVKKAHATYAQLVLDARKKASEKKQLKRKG
Put plainly: EMSA.

Take CUGAAGUGGAGUUUAAUUCCAUGAGAAGGAAAUAUCAACUCUUACAG (structured_RNA) [first stem-loop (SL) of repR mRNA, 47 nt]: the binding result is “binds”.
